Source: the DeepSol protein solubility set

experiment: soluble on expression in E. coli; label from the status in PepcDB or PDB records

Row | Sequence | soluble on expression in E. coli
1 | SNFLEIDIFNPQTVGVGRARFTTYEVRMRTNLPIFKLKESCVRRRYSDFEWLKNELERDSKIVVPPLPGKALKRQLPFRGDEGIFEESFIEERRQGLEQFINKIAGHPLAQNERCLHMFLQEEAIDRNYVPGK | soluble
2 | MSARMDNDTAALLERIRSDWARLNHGQGPDSDGLTPSAGPMLTLLLLERLHAALGREIERTYAASGLNAAGWDLLLTLYRSAPPEGLRPTELSALAAISGPSTSNRIVRLLEKGLIERREDERDRRSASIRLTPQGRALVTHLLPAHLATTQRVLAPLSAQEQRTLEELAGRMLAGLEQGV | soluble
3 | MADTSCKLKPLCFRFVSTLKSPIAVITVTYSPGKYLASFLDSLPGATSRDTHVVMADNGSVDGVPEQAAASRSNVEFLSTGGNLGYGTAINIAARSLRARREAGEIDGEFFLVSNPDVVFDEDSIDQLLECAKRHPEAGAVGPLIREADGSAYPSARAVPTLANGIGHALLGAVWKSNPWSAAYRDDEDMDTERTAGWLSGSCLLLRWDAFDRVGGFDERYFMYMEDVDLGDRLVRAGFTNVFCPSAQIIHAKGHVAGKNPENMLPAHHESAYRFQADRLAKPWQAPIRLALRIGLKLRAGVAVGVSKMRTKASLEHHHHHH | not soluble
4 | MGSSHHHHHHGGTGENLYFQGGSGMKGVTSFTVYGLVPAADFQRCAEAAAYVNDKYPESYAVIVKLELPRDFAERRAAWASAGHLPSQQQQPTDASFGESGGSATTASTAAAELAAVLVEQHGSDSEPQCLLTAETFLHNIATHTDYKPDATEDYYTARGKRAWRAFLASRGRQYCWMDVSVDGVAVGRVWFELYASVAPLTCKNFCELCRGTTVAMGDTVAHSSVFDPPPAQHIGYKGTTFFRTLKDAWVMGGDVTGAHSGNGGYSCYGRCFPDETYAVPHDAAGILGMCNDGPHTSSSAFYITLRPMSWMNGKYVAFGRVMDGMHVVDAIHAVEARHNQAPKASIVITDCDVLDTSV | soluble
5 | MGSDKIHHHHHHMNDINLLPLTSAYLDLILEWRNNPEVRRNMYTSHVISKAEHYAWFKKLESDNTKQCFIFVLNGVPSGFISFVDINLNSKSATWAFYSGNTSVRGIGSLMEVSALNYAFSTLGLHKLSCEVLEFNNMVVRFHEKYGFHVEGVFKKHHFSEGEYWDIYRLAIFNEEWARCKLEINLKKQSISPGSSYRENVFFTNENIIGFSALSGDCNQIHLNKQYAIKNGFDNNLVHGFLVGSVFSKVFGTRFPGDGCIYISQSLSFLSPVYPDDLLEASFVVLSKIGRKLVVETSITNLHSNKKVIDGVAELLISMDSQIGYLNQYL | not soluble
6 | MDVLSGTQVTDPEQLIVNREEVDDIELKMAELLSDLERKVLALYLDGRSYQEISEELNRHVKSIDNALQRVKRKLEKYLEYREISL | not soluble
7 | MGSDKIHHHHHHMWQFPLFETILIEQGQAKNISYHQQRYEKSLLKFYPKMKLQPFDLAKIIAKHTALFTHREGLIRCRIDYNHHDYVLQCFPYQQKVYRTFKPVFCDHIDYSLKFSDRTLLNNLLKQKEECDEIMIIRQGKVTDCSIGNLIFRQNNQWITPDKPLLEGTQRAKLLEQKKIIAREIFFEDLAQYEEIRLINAMNGL | not soluble
8 | MNKKRMIAMVSTALLVTGCAEVGNAQTVAVENSGQSVQKNIVKSIQSQANPLKTIEPSKPFEDLKPLKKMIGNAQYVGLGENTHGSSEIFTMKFRLVKYLVTEMGFTNFAMEEDWGNGLKLNEYIQTGKGNPREFLKLLYPTDEIIAMIEWMKDYNADPSNKKKIQFIGLDLKALDQGSFNKVIDYVRLHRPDLLAEVEENYKELSSFTGSIQEYMKLTPKLKEKFKANAERVARLLKDENEQANTEIIPSEYIWAKATASAIEKFTTMLLPNDYPSIIKLHEQYLADHAMWAQETFGGKTMVWAHNIHIAKGIIDEKLYPYVAGQFLKERLDNNYVTIGSTTTEGNFTLYSEYNPSTGGKITTDTIPQDVKSFNYTLGKVPYKMFLLDNRHLKGQAEKWVKAKRPLLSIGGQILPNSSVYFDTSLLEQFDIIFHIRKTSPSHIKLEHHHHHH | soluble
9 | MRERAYFIGAHAYSAPIIEPALYLVATPIGNLADITLRALQVLAGVDILACEDTRVTRVLLERYGIQKKTFLYHEYNAQKAGPKLLTALEENKAIALVSDAGTPLISDPGFRLVEEARKAGHKIVPIPGASALLAALVATGLPTDSFFFAGFLSARKAQRQKRLEQLKTIPATLVFYESPHRLVETLQDMVALFSADRPAAICRELTKKFETVDVSNLGNLSESYGKQAHIRGEIVVLVGQKLSSLNVMSDHEIDEMLLELARTYSAAKAASLASKKTGLKKQELFQRLNFLKDA | not soluble
10 | GPGSMMSSATLSDVETLENIPRGAPIGGSGIVSGTASEGSSRGAERSTVANVSEDGERGRREEEEDRKPLIMDQSVIMDEEPYISPAKAKKISWKCGLCGYYVLAMDHNGNPLELTNSPSGEPLPMSCPRCMLLHHDWEPAVPFDDFNNHANIRSKQSNSYVISDQKSGKQAGFVPARTPAERDLKKTSADITRILQEVEDRWRNYAPRESPTSREQGPKGRLMAYYCDKCNRELLRMDQYGELVPMVSDKEGKPLPIVCPGCKEEHSEWVVRPFTVTR | soluble
11 | ETTSCEFSVSPSGLAFCDKVVGYGPEAVKGQLIKAHYVGKLENGKVFDSSYNRGKPLTFRIGVGEVIKGWDQGILGSDGIPPMLTGGKRTLRIPPELAYGDRGAGCKGGSCLIPPASVLLFDIEYIGKA | soluble
12 | GMDTNGVLYAANMTNALAKEIPESKWDIQLIPELGTLRKLFIHIVRVRDVYRDGLKTGSIKFPGRLASDEHRLLDELERSMEELVFEFKQTTFNSIKMGENYLSIMELLGTVIQHEGIHQGQYYVALKQSGINLPKQWVQDWHM | soluble
13 | MPMFTSFDHQMMSRAIELAWRGRFTTSPNPNVGCVITRGEQIVGEGFHFRAGEPHAEVHAMRQAGELTRGATAYVTLEPCSHYGRTPPCAEGLIKAGVAKVICAMQDPNPQVAGKGVQMLRDAGIEVEVGLLEADARVLNRGFLKRMETGMPFVQLKMAASLDGQTALANGKSQWITSPAARKDVQRFRAQASAILSTSQTVLADNASLAVRWYDLPSSVQAQYAEADLRQPLRVILDRQHQLHPELALYQTPSPVLRVASENAELCISAENGKLDLRELLALLAQQHNVNQLWVEAGSQLAQSLIEQKLVDEIILYLAPKLMGSDGRGLFGALGLTEMAEAIELKIEDCRMVGADLRIIATPKTKD | not soluble
14 | MAVLGLQGVRGGVGTTTITAALAWSLQMLGENVLVVDACPDNLLRLSFNVDFTHRQGWARAMLDGQDWRDAGLRYTSQLDLLPFGQLSIEEQENPQHWQTRLSDICSGLQQLKASGRYQWILIDLPRDASQITHQLLSLCEHSLAIVNVDANCHIRLHQQALPDGAHILINDFRIGSQVQDDIYQLWLQSQRRLLPMLIHRDEAMAECLAAKQPVGEYRSDALAAEEILTLANWCLLNYSGLKTPVGSAS | not soluble
15 | EVKEEDAFYSKKCKLFYKKDNEFKEKGIGTLHLKPTANQKTQLLVRADTNLGNILLNVLIPPNMPCTRTGKNNVLIVCVPNPPIDEKNATMPVTMLIRVKTSEDADELHKILLEKKDA | soluble
16 | HSHDWLTYPAGIHAKTVTGKPLVVHVHATDFDRSRGNVNPQVFAIEKDGMNHADHIITVSNLTRRTVIEKYGQHPDKVTTVHNAVEPLPASILALPDKRGVKDKVITFLGRITMQKGPEYFVEAAAKVLERTSDVRFVMAGNGDMMDAMIRLAARHKIADRFHFTGFMKGEQVYEVFKASDVYVMPSVSEPFGISPLEAMQCGVPSIISKQSGCAEILDYAIKVDYWDIDAMADAMHALIAYPELHTFLRDEGLREVNNIKWETAGQKVRDIYNKVTGR | not soluble
17 | GPGSMLRRTLRRLMPSDAIGSVHPDVLWGYQQGQYAGPGWANFVKSLPLETLAMQGGSTMANLNDRAGTFLDPEDPRHPLALMQFGIMGKMDGTFHQLAYGDFGRVPKGSRLMQVLYENYLEPFSMNRVCAQLYFYQKVPNNYHASVDATAEYVGQTASLVGQVVVGLGACIMEGVTIRADTNCVYIAEGVQILENTCIMSDAPTDLLAYQRHELLNPYQQWDGMDGVTRIMPNTIIESNCYLDGCSIGSFNRIGHNTKIMKGVTTGIMVHIMPGSVVTADTKIGDGELWGGAPACKIGEVSKFEYKRPYYASLLHRESVAESYRNMSRYGDQFVHYMNAMGQLETLMIHYEDHVTPGIKAKVRDFEEGREPFHHTITRIAQGWSPANRPDDKNFAMAPPAPGVKLFAEHNTDSSPSEWNGSYANITNIFNDFRW | not soluble
18 | MSLKRSIHVQAFVYNEKKDEILIVRNRNLAWTFPGGHVETDQTMEEALASKVKEQTNIDIEIESILHCKERRATWEHVCTFVFRAKPVGEMATFSNDDNVFRVKWIPIPLADDLLPIDQLSLNELVRSEGVLYENEGHHHHHH | soluble
19 | MSLGMRDVAKEAGVSLSTVSLVVNKTGYVSDDMRARVEAAMKELNYVPNELARNLYKNRTNLVGVIVPTIRHPFFATLTAHLQRELAAQGLRTMLCSTADAENGEVEYVDMLRRHMMDGIIVCSHTTHPNDYWTSIHRPIVAFDRVLGGGIASIGSDHEQGGRLMAHMLVNTGAHHVVMIGGPRDQFFDLAARNGDSPDDFDLHKTTFPTVRYYLALEQELKAAGVRYEYVEAGNVEDFQGYKNAVNAVLNSMPVDGVDAVVSSDIGAALCVREAMRRHISIPRDLQIIAYDGTYLTDLAGMKMTAVAQNFDKIAQVAVGNIVRAIAKEGDAKADTTSATGRKPYEPDVLIPVTLKLGDTTREGHHHHHH | soluble
20 | MILVVDNYDSFTYNLVDIVAQHTDVIVQYPDDDNVLNQSVDAVIISPGPGHPLDDQQLMKIISTYQHKPILGICLGAQALTCYYGGEVIKGDKVMHGKVDTLKVISHHQHLLYQDIPEQFSIMRYHSLISNPDNFPEELKITGRTKDCIQSFEHKERPHYGIQYHPESFATDYGVKIITNFINLVKEG | not soluble
21 | GPGSMMNLAPDTITIGAQRNTELLLLEYLRSTNPHIHALWQRHPNKDNDASSSSAASSPSKDTRGASGSDVGDANASSSSAASALRESFDYTEPRLYRAAHVHFLMENLSVAPQGFSSLYPSRPWIVYWALQAADVLNSMESEVLHRTPPSAIVAFLHSCLSVDHTCQAEVNNRLAAAATSARGAPEGKDPHVTGTPLESSTTSVTLERDSADATSATLMPPVEDAAEVAEGPSRPVMGFAGGATHQEPHIASSYAACCALAMLSWYGDGAPLRQLPRAAIKRWLLTLRNEDGSFRVHGGGESDIRASYCAAVITTLLGLDDPTTFDGEAGRCEFVDDVRDVPVLTLQTARFVAACQTHEGGFTCSPTASEAHGAYTQCGLAALLLMKQPHMVHQASLRRWLAARQLNYEGGFNGRTNKLVDSCYSHWIGASHVLLRTVEAYTKCFTEVPTTHSRNGDGTGGCEDGYREDVDCTPSARCLRAREVVLLDHAQLLDAKMIHASADDAWDRAESAHLTRLGVVDQFLGADDAVLRSAEEKRTAVTALYERLLESRLAAVRSCDGNGDAAAGDVQGSLEAWRARQAFLYADVGDFYFNQRKLQDYVLRCCQDSEIGGLMDKPQTAHDGYHTCYSLSGLSAAQNLQYRTHVTAADAAYPSTYLERAFARSYLPGRESGSTSGNEEGSCGVVLGLPNTSAAAESMLLRTTSPIFNIHQSRVLSALRAWSVKAFV | not soluble
